Measured values from patent publication US7358040B2, “MRE 11: modulation of cellular proliferation” (Rigel Pharmaceuticals, Incorporated, priority 2001, dated 2008).
Positions count from the first letter of the chain named. Names may count otherwise.

What was measured:
Format in all cases: cell-based
A549 tumor cells [1] = test: overexpression / GFP positivity proliferation assay in A549 tumor cells
Text: (§1) As described below, the present inventors identified MRE11 in a yeast two hybrid assay, using PCNA as bait. Another molecule, NBS1, was identified in the two-hybrid assay as a PCNA-binding protein, as NBS1 binds the mammalian homolog of yeast RAD50, which also binds to MRE11 (see, e.g., Petrini, Am. J Hum. Genet. 64:1264-1269 (1999); Kim et al., J. Biol. Chem. 271:29255-29264 (1996); see also GenBank Accession number XP—034864 for a protein sequence of human RAD50 and Accession number XM—034864 for a nucleic acid sequence of human RAD50; see also Example 1)). NBS1 therefore bound to the RAD50/MRE11 complex, as well as to PCNA. As shown in FIGS. 8-15, inhibition of MRE11 or overexpression of an MRE11 mutant is antiproliferative in tumor cells and HeLa cells but not in normal cells (using, e.g., GFP positivity assays, cell tracker assays, and antisense assays).
(§2) In another embodiment, MRE11 protein is expressed in a cell, and functional, e.g., physical and chemical or phenotypic, changes are assayed to identify MRE11 and modulators of cellular proliferation, e.g., tumor cell proliferation. Cells expressing MRE11 proteins can also be used in binding assays and enzymatic assays. Any suitable functional effect can be measured, as described herein. […]

HeLa cells [2] = test: overexpression / GFP positivity proliferation assay in HeLa cells
Text: as §1, §2

A549 tumor cells [3] = test: cell tracker assay in A549 tumor cells
Text: as §1, §2

normal cells [4] = test: overexpression proliferation assay in normal cells
Text: as §1, §2

normal cells [5] = test: cell tracker assay in normal cells
Text: as §1, §2

A549 tumor cells [6] = test: bleomycin chemosensitization study in A549 tumor cells
Text: as §1

HeLa cells [7] = test: bleomycin chemosensitization study in HeLa cells
Text: as §1

normal HMEC cells = test: bleomycin chemosensitization study in normal HMEC cells
Text: as §1

B1: GFP-fused MRE11 H129N mutant: GFP-fused dominant negative H129N mutant of MRE11 nuclease, overexpressed in cells for target validation (protein, UniProt P49959 2-708, looked up, variant H129N)
Double-strand break repair …: STADALDDENTFKILVATDIHLGFMEKDAVRGNDTFVTLDEILRLAQENEVDFILLGGDLFHENKPSRKTLHTCLELLRKYCMGDRPVQFEILSDQSVNFGFSKFPWVNYQDGNLNISIPVFSIHGNNDDPTGADALCALDILSCAGFVNHFGRSMSVEKIDISPVLLQKGSTKIALYGLGSIPDERLYRMFVNKKVTMLRPKEDENSWFNLFVIHQNRSKHGSTNFIPEQFLDDFIDLVIWGHEHECKIAPTKNEQQLFYISQPGSSVVTSLSPGEAVKKHVGLLRIKGRKMNMHKIPLHTVRQFFMEDIVLANHPDIFNPDNPKVTQAIQSFCLEKIEEMLENAERERLGNSHQPEKPLVRLRVDYSGGFEPFSVLRFSQKFVDRVANPKDIIHFFRHREQKEKTGEEINFGKLITKPSEGTTLRVEDLVKQYFQTAEKNVQLSLLTERGMGEAVQEFVDKEEKDAIEELVKYQLEKTQRFLKERHIDALEDKIDEEVRRFRETRQKNTNEEDDEVREAMTRARALRSQSEESASAFSADDLMSIDLAEQMANDSDDSISAATNKGRGRGRGRRGGRGQNSASRGGSQRGRADTGLETSTRSRNSKTAVSASRNMSIIDAFKSTRQQPSRNVTTKNYSEVIEVDESDVEEDIFPTTSKTDQRWSSTSSSKIMSQSQVSKGVDFESSEDDDDDPFMNTSSLRRNRR
modifications: GFP fusion
notes: GFP-fused dominant negative H129N mutant of MRE11 nuclease, overexpressed in cells for target validation
A549 tumor cells [1]
  antiproliferative activity on overexpression: antiproliferative
HeLa cells [2]
  antiproliferative activity on overexpression: antiproliferative
A549 tumor cells [3]
  antiproliferative activity, cell tracker assay: antiproliferative

B2: MRE11 H129N mutant: MRE11 H129N mutant expressed using IRES GFP (not fused) (protein, UniProt P49959 2-708, looked up, variant H129N)
Double-strand break repair …: B1 Double-strand break repair …
A549 tumor cells [3]
  antiproliferative activity, cell tracker assay: antiproliferative

B3: MRE11 wild type: wild-type human MRE11 protein (SEQ ID NO:2) overexpressed in cells (protein, listed as Homo sapiens)
chain: MSTADALDDENTFKILVATDIHLGFMEKDAVRGNDTFVTLDEILRLAQENEVDFILLGGDLFHENKPSRKTLHTCLELLRKYCMGDRPVQFEILSDQSVNFGFSKFPWVNYQDGNLNISIPVFSIHGNHDDPTGADALCALDILSCAGFVNHFGRSMSVEKIDISPVLLQKGSTKIALYGLGSIPDERLYRMFVNKKVTMLRPKEDENSWFNLFVIHQNRSKHGSTNFIPEQFLDDFIDLVIWGHEHECKIAPTKNEQQLFYISQPGSSVVTSLSPGEAVKKHVGLLRIKGRKMNMHKIPLHTVRQFFMEDIVLANHPDIFNPDNPKVTQAIQSFCLEKIEEMLENAERERLGNSHQPEKPLVRLRVDYSGGFEPFSVLRFSQKFVDRVANPKDIIHFFRHREQKEKTGEEINFGKLITKPSEGTTLRVEDLVKQYFQTAEKNVQLSLLTERGMGEAVQEFVDKEEKDAIEELVKYQLEKTQRFLKERHIDALEDKIDEEVRRFRETRQKNTNEEDDEVREAMTRARALRSQSEESASAFSADDLMSIDLAEQMANDSDDSISAATNKGRGRGRGRRGGRGQNSASRGGSQRGRADTGLETSTRSRNSKTAVSASRNMSIIDAFKSTRQQPSRNVTTKNYSEVIEVDESDVEEDIFPTTSKTDQRWSSTSSSKIMSQSQVSKGVDFESSEDDDDDPFMNTSSLRRNRR
modifications: human MRE11 meiotic recombination 11 homolog A
Normal cells [4]
  antiproliferative activity on overexpression: not antiproliferative
Normal cells [5]
  antiproliferative activity, cell tracker assay: no antiproliferative activity
A549 tumor cells [6]; tumor cells expressing the protein, 48 hours after bleomycin treatment
  selective sensitization after bleomycin treatment: no selective sensitization

B4: GFP-MRE11 H217Y mutant: GFP-fused MRE11 H217Y mutant overexpressed in cells (protein, UniProt P49959 2-708, looked up, variant H217Y)
Double-strand break repair …: B1 Double-strand break repair … with N128H, H216Y
modifications: GFP fusion
notes: GFP-fused MRE11 H217Y mutant overexpressed in cells
A549 tumor cells [6]; A549 tumor cells
  sensitivity to bleomycin treatment on overexpression: enhances sensitivity
HeLa cells [7]
  sensitivity to bleomycin treatment on overexpression: enhances sensitivity
Normal HMEC cells
  sensitivity to bleomycin treatment on overexpression: does not enhance sensitivity
